Test results from patent publication US20110245153A1.

Tests used:
[1] = molecular target: staphylococcal enterotoxin B (SEB), Staphylococcus aureus superantigen peptide; test: fusion: Aga2 (yeast display)
[2] = molecular target: toxic shock syndrome toxin-1 (TSST-1), Staphylococcus aureus superantigen peptide; test: soluble, other

| Substance | Kd [1] | Kd [2] |
| --- | --- | --- |
| EGIGYITK | 0.005 µM | – |
| wild type hVβ2.1 | – | 2.3 µM |
